Measurements reported in the supplement of paper PMC10724198.
± gives the standard deviation of the averaged measurements.

Experiments:
Saccharomyces cerevisiae [1] = experiment: protein stability index of tFT-peptide fusion (C-terminal peptide) (PSI (0-1 scale)); higher = more stable (slower turnover); details: genetic background: wild type; temperature: 30 C
Saccharomyces cerevisiae [2] = experiment: as above
Experimental: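 MPS profiling in S. cerevisiae of the tFT-X12 degron library: putative degron peptides plus stable controls, 12 aa, fused to the C-terminus of a sfGFP-mCherry timer. Cells are FACS-sorted into 8 mCherry/sfGFP bins and deep-sequenced. PSI runs from 0 (unstable) to 1 (stable). Backgrounds are wild type, das1Δ and doa10Δ at 30 °C, and wild type, das1Δ, cdc34-1 and cdc53-1 at 37 °C; 2-3 technical replicates each.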

[3] = genetic background: cdc34-1, temperature: 37 C
[4] = genetic background: cdc53-1, temperature: 37 C
[5] = genetic background: das1 deletion, temperature: 30 C
[6] = genetic background: das1 deletion, temperature: 37 C
[7] = genetic background: doa10 deletion, temperature: 30 C
[8] = genetic background: wild type, temperature: 30 C
[9] = genetic background: wild type, temperature: 37 C
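Also: PSI is a weighted mean of sequencing reads over stability bins, variants kept only with over 10 reads, mCherry proximal and sfGFP distal, peptide attached via GGGS linker.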

Sequence	protein stability index (Saccharomyces cerevisiae [1])	protein stability index (Saccharomyces cerevisiae [2]; [3])	protein stability index (Saccharomyces cerevisiae [2]; [4])	protein stability index (Saccharomyces cerevisiae [2]; [5])	protein stability index (Saccharomyces cerevisiae [2]; [6])	protein stability index (Saccharomyces cerevisiae [2]; [7])	protein stability index (Saccharomyces cerevisiae [2]; [8])	protein stability index (Saccharomyces cerevisiae [2]; [9])
YLFLPGGEVSVH	0.487 ± 0.083	0.641 ± 0.033	0.653 ± 0.019	0.538 ± 0.032	0.666 ± 0.0033	0.5204 ± 0.0031	0.553 ± 0.019	0.6369 ± 0.00098
VIVQSWEIIRLN	0.21 ± 0.018	0.553 ± 0.055	0.71 ± 0.0093	0.604 ± 0.022	0.7176 ± 0.0053	0.0878 ± 0.0043	0.105 ± 0.026	0.122 ± 0.0068
LPVSLWLVCSFF	0.324 ± 0.0038	0.524 ± 0.009	0.543 ± 0.02	0.432 ± 0.023	0.5682 ± 0.00058	0.345 ± 0.023	0.358 ± 0.03	0.5283 ± 0.0021
RPPSLVFLFLLT	0.441 ± 0.032	0.551 ± 0.062	0.587 ± 0.021	0.441 ± 0.048	0.598 ± 0.01	0.401 ± 0.026	0.395 ± 0.015	0.573 ± 0.023
LPALPFPIPTFA	0.243 ± 0.053	0.0567 ± 0.00074	0.0586 ± 0.0097	0.186 ± 0.027	0.201 ± 0.005	0.134 ± 0.0084	0.173 ± 0.031	0.179 ± 0.01
HPRPRPPPLPPP	0.508 ± 0.032	0.4633 ± 0.00058	0.546 ± 0.019	0.504 ± 0.006	0.523 ± 0.021	0.544 ± 0.0083	0.487 ± 0.03	0.4943 ± 0.0044
AELLMLRIFFLF	0.132 ± 0.027	0.281 ± 0.0063	0.48 ± 0.036	0.333 ± 0.019	0.491 ± 0.022	0.091 ± 0.0049	0.0708 ± 0.019	0.0944 ± 0.032
ARKIGKVIPKLG	0.43 ± 0.027	0.686 ± 0.021	0.732 ± 0.037	0.634 ± 0.043	0.737 ± 0.02	0.292 ± 0.0097	0.341 ± 0.039	0.599 ± 0.011
HFLLAFMLCFGQ	0.466 ± 0.044	0.4512 ± 0.0045	0.476 ± 0.0097	0.359 ± 0.039	0.504 ± 0.0076	0.336 ± 0.011	0.356 ± 0.021	0.476 ± 0.024
VVSLAVVGRFLV	0.2243 ± 0.0017	0.616 ± 0.061	0.7 ± 0.011	0.586 ± 0.024	0.7 ± 0.031	0.118 ± 0.018	0.147 ± 0.018	0.263 ± 0.03
